Assay results from patent publication US11419948B2, “Functionalized microgels with fibrin binding elements” (Georgia Tech Research Corporation, priority 2013, dated 2022).

T1: fibrin (Homo sapiens, UniProt P02671+P02675+P02679)
T1 sequence (P02671 36-866 limits assumed): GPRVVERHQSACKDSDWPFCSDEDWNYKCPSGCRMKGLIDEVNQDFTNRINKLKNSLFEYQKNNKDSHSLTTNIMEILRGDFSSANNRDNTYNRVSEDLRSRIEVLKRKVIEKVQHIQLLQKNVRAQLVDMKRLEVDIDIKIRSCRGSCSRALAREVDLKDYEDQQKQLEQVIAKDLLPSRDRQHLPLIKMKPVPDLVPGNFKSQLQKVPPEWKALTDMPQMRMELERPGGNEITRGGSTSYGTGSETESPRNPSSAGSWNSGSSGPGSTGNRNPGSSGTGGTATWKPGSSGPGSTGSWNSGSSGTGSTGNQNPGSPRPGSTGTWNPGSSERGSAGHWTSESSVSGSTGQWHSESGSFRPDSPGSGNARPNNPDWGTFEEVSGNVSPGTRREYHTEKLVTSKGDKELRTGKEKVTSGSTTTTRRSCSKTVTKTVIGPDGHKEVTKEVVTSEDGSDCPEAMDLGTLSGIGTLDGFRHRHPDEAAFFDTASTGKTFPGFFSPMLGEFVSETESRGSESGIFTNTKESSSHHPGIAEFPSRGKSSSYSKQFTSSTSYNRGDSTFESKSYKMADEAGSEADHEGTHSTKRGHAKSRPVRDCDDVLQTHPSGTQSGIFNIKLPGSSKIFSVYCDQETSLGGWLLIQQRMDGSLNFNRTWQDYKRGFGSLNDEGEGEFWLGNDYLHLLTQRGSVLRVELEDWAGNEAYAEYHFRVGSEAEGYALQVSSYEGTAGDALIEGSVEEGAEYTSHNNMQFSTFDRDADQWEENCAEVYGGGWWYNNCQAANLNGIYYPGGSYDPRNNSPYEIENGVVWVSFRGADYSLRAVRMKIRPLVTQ
T1 sequence (P02675 45-491 limits assumed): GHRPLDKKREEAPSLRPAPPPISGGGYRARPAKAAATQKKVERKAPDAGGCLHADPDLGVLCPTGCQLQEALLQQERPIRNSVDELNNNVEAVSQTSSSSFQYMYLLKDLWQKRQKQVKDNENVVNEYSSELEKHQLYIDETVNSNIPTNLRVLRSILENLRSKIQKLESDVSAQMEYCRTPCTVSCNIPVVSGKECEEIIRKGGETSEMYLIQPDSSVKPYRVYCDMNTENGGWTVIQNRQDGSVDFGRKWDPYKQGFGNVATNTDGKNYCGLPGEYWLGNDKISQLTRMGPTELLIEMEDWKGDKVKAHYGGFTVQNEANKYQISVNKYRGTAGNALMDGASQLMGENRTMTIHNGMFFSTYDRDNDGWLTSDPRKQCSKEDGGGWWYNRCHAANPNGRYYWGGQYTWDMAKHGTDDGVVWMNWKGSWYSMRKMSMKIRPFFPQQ
T1 sequence (P02679 27-453): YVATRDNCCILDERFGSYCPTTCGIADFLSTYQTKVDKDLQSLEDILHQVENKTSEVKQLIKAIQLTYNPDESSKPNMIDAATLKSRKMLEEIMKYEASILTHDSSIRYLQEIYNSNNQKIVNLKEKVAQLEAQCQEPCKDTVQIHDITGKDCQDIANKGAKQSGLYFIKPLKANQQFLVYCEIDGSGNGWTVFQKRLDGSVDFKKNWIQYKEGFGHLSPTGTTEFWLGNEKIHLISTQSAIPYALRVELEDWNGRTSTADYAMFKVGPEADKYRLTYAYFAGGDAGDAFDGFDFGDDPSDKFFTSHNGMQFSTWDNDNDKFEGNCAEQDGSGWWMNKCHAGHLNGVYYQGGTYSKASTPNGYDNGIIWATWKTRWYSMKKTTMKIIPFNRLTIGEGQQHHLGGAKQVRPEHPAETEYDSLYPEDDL

B1: PLPs: ultra-low crosslinked pNIPAm-AAc microgels conjugated to fibrin-specific sdFv H6 (conjugate)
VH: QVQLLESGGGLVQPGGSLRLSCAASGDRFTHNDMGWVRQAPGKGLEWVSTIPTTDGSTYYADSVKGRFTISRDNSKSTLYLQMNSLRAEDTAVYYCATGYMWKAPAYVKYWGQGTLVTVSSAAAEQKLISEEDLNSAAHYTDIG
B2: H6: fibrin-specific human sdFv clone from phage biopanning, SEQ ID NO: 1 (protein)
VHH: B1 VH

Tests used:
fibrin = target: T1, fibrin; assay: Interferometry (Fortébio Blitz) binding of sdFv-microgels to fibrin layer; conditions: several concentrations
Protocol: Ultralow crosslinked (ULC) microgels (microgels) with highly deformable, dendritic architecture were prepared using standard precipitation polymerization techniques previously described, Clemetson, K. J., Thrombosis Research, 129:220-224 (2012). A 95% pNIPAm/5% AAc composition (poly(N-isopropylacrylamide-co-acrylic acid) was utilized for microgel synthesis which results in microscaffolds ˜1-μm diameter in the swollen state. Co-polymerization with acrylic acid was utilized to allow for carboxylic acid chemoligation sites for sdFv attachment, Fries, et al., British Journal of Anesthesia, 105:116-121 (2010); Granville-Chapman, et al., Injury, 42:447-459 (2011). Following synthesis, microgels were purified using ultracentrifugation and conjugated to fibrin specific sdFvs using standard EDC/NHS chemistry. For confocal fluorescence microscopy experiments, sdFvs were also labeled with maleimide-Alexa Fluor-488 following conjugation to the microgels. To determine basic microgels properties, the particles were characterized using dynamic light scattering to determine the hydrodynamic radius and atomic and force microscopy imaging to characterize morphology. Finally, to ensure that microgels coupled to fibrin-specific sdFvs retained fibrin-binding capabilities, binding of sdFv-microgels to fibrin was determined through interferometry analysis utilizing the Fortébio Blitz system. […]

[1] = tested on: platelet poor plasma (PPP); assay: Dynamic in vitro clotting in endothelialized microfluidic device; format: biochemical, human; conditions: platelet-poor plasma under flow
Protocol: To characterize the effect of microgels on clotting in vitro, a endothelialized microfluidics device that accurately recapitulates the cellular, physical, and hemodynamic environment of microcirculation, was used as previously described, Jackson, et al., Journal of Thrombosis and Haemostasis: JTH 7 Suppl 1:17-20 (2009). For these experiments, clotting of platelet poor plasma (PPP) was analyzed in the absence or presence of fibrin-binding microgels of varying degrees of crosslinking in real time using confocal microscopy. As a control, clotting of platelet rich plasma (PRP) or PPP in the presence of non-fibrin binding microgels were also investigated. Microgels or buffer were added to PPP immediately prior to injection into the microfluidics device. To visualize clotting, PPP was spiked with Alexa Fluor-488 labeled fibrinogen. Endothelial cells were stained with Cell Mask Deep Red (Invitrogen) and microgels were labeled with Alexa Fluor 546. For experiments utilizing PRP, platelets were stained with Cell Mask Red (Invitrogen). Samples were flowed at 1.1 μL/min and imaged continuously for 20 min. Clotting overtime was characterized through imaging processing with Image J (NIH). Each microfluidic device is comprised of three regions of different flow rates, comprising four endothelialized channels.

human plasma components = assay: Qualitative human plasma assay (protein A pull down, polyacrylamide gel); format: binding; conditions: 30 minutes room temperature
Protocol: H6 binding was determined through both qualitative and quantitative human plasma assays. The qualitative assay involved incubating either H6, the non-binding negative control, S11, or saline with human plasma at room temperature for 30 minutes. The plasma mixtures were subsequently incubated with protein A beads with the intent to pull down all IgG isotypes (including H6 and S11).
The eluants from the protein A pull down experiment were run on a polyacrylamide gradient gel to visualize any band shifts present in the H6-plasma solution that would indicate a binding interaction not present in the S11-plasma or saline-plasma solutions.

Molecule | binding of sdFv-microgels to the fibrin layer (fibrin) | fibrin clot formation in response to thrombin [1] | non-specific binding to human plasma components (band shifts) (human plasma components)
B1 | increased binding to the fibrin layer with increasing concentrations | successfully rescued fibrin clot formation | 
B2 |  |  | did not non-specifically bind
